From patent publication US20250340902A1, “GENE THERAPY FOR BVES-RELATED DISORDERS” (OHIO STATE INNOVATION FOUNDATION, priority 2022, published 2025)

How the values were obtained:
Assay in all cases: anti-HA co-IP from muscle, MS; CTRL 0
[1] = target: Actin-binding LIM protein 2 (Mus musculus) (UniProt Q8BL65)
[2] = target: Myocilin (Mus musculus) (UniProt O70624)
[3] = target: NADH dehydrogenase [ubiquinone] iron-sulfur protein 6, mitochondrial (Mus musculus) (UniProt P52503)
[4] = target: Fibulin-1 (Mus musculus) (UniProt Q08879)
[5] = target: Nucleolar protein of 40 kDa (Mus musculus) (UniProt Q9ESX4)
[6] = target: Solute carrier family 12 member 2 (Mus musculus) (UniProt P55012)
[7] = target: Triggering receptor expressed on myeloid cells 2 (Mus musculus) (UniProt Q99NH8)
[8] = target: Spectrin alpha chain, erythrocytic 1 (Mus musculus) (UniProt P08032)
[9] = target: Nucleolar and coiled-body phosphoprotein 1 (Mus musculus) (UniProt E9Q5C9)
Nucleolar and coiled-body phosphoprotein 1 (Mus musculus), sequence (E9Q5C9 whole entry): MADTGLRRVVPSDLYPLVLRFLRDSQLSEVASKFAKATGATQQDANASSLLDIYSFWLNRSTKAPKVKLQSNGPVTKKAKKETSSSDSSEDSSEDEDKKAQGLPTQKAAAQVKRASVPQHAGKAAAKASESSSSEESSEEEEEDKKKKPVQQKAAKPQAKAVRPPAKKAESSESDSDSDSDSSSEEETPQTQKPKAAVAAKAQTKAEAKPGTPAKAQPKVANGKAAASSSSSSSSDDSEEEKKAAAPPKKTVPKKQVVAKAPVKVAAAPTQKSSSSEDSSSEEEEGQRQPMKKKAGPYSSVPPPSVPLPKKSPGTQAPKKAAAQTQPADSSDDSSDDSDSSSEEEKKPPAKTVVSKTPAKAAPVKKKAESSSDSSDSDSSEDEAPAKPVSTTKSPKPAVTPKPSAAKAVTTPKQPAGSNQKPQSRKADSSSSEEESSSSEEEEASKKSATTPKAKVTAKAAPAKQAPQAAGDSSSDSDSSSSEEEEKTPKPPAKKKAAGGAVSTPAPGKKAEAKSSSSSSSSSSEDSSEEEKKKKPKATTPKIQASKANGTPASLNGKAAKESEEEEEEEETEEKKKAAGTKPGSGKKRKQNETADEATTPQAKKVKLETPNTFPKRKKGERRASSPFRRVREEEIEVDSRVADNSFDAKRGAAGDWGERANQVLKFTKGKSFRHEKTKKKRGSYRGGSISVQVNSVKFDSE

[10] = target: Heterogeneous nuclear ribonucleoprotein H2 (Mus musculus) (UniProt P70333)
[11] = target: C-type lectin domain family 3 member A (Mus musculus) (UniProt Q9EPW4)
[12] = target: Sodium/calcium exchanger 3 (Mus musculus) (UniProt S4R2P9)
[13] = target: MAP7 domain-containing protein 1 (Mus musculus) (UniProt A2AJI0)
[14] = target: Sarcospan (Mus musculus) (UniProt Q62147)
[15] = target: Casein kinase II subunit alpha (Mus musculus) (UniProt Q60737)
[16] = target: Monocarboxylate transporter 4 (Mus musculus) (UniProt P57787)
[17] = target: Keratin, type II cytoskeletal 7 (Mus musculus) (UniProt Q9DCV7)
[18] = target: Anoctamin-5 (Mus musculus) (UniProt Q75UR0)
[19] = target: Tubulin alpha-1B chain (Mus musculus) (UniProt P05213)
Tubulin alpha-1B chain (Mus musculus), sequence (P05213 whole entry, the tested form may be a part): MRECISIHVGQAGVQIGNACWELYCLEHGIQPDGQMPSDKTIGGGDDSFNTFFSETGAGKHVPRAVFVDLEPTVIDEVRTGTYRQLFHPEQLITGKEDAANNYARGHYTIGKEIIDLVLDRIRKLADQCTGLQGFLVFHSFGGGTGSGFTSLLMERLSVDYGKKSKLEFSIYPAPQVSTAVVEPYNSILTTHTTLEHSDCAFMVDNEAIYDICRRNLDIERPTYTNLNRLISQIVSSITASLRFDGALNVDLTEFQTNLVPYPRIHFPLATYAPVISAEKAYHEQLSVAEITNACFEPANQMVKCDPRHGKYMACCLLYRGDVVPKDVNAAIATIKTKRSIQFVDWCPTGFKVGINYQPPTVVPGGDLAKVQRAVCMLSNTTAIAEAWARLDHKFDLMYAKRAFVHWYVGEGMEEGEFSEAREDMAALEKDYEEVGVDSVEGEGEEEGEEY

[20] = target: RUN and FYVE domain-containing protein 1 (Mus musculus) (UniProt Q8BIJ7)
[21] = target: Bifunctional purine biosynthesis protein ATIC (Mus musculus) (UniProt Q9CWJ9)
[22] = target: Eukaryotic initiation factor 4A-III (Mus musculus) (UniProt Q91VC3)
[23] = target: Delta-sarcoglycan (Mus musculus) (UniProt P82347)
[24] = target: Lupus La protein homolog (Mus musculus) (UniProt P32067)
[25] = target: Endoplasmic reticulum transmembrane helix translocase (Mus musculus) (UniProt Q9EPE9)
[26] = target: N-alpha-acetyltransferase 50 (Mus musculus) (UniProt Q6PGB6)
N-alpha-acetyltransferase 50 (Mus musculus), sequence (Q6PGB6 whole entry): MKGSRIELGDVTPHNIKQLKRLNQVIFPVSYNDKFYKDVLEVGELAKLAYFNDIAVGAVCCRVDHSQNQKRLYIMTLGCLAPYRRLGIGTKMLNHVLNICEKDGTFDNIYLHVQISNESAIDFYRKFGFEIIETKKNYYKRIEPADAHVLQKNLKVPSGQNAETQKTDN

[27] = target: Multidrug resistance-associated protein 1 (Mus musculus) (UniProt O35379)
[28] = target: NADH dehydrogenase [ubiquinone] iron-sulfur protein 3, mitochondrial (Mus musculus) (UniProt Q9DCT2)
[29] = target: Fatty acid-binding protein, adipocyte (Mus musculus) (UniProt P04117)
[30] = target: Gamma-sarcoglycan (Mus musculus) (UniProt P82348)
Gamma-sarcoglycan (Mus musculus), sequence (P82348 whole entry): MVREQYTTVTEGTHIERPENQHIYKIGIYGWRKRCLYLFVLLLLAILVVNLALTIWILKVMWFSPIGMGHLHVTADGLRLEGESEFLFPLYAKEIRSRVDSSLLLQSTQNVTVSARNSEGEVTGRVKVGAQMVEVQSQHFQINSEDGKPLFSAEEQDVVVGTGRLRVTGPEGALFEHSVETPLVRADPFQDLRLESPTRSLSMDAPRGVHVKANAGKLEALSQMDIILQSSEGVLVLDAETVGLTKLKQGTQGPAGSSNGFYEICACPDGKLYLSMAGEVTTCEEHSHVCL

[31] = target: Cell cycle progression protein 1 (Mus musculus) (UniProt Q640L3)
Cell cycle progression protein 1 (Mus musculus), sequence (Q640L3 whole entry): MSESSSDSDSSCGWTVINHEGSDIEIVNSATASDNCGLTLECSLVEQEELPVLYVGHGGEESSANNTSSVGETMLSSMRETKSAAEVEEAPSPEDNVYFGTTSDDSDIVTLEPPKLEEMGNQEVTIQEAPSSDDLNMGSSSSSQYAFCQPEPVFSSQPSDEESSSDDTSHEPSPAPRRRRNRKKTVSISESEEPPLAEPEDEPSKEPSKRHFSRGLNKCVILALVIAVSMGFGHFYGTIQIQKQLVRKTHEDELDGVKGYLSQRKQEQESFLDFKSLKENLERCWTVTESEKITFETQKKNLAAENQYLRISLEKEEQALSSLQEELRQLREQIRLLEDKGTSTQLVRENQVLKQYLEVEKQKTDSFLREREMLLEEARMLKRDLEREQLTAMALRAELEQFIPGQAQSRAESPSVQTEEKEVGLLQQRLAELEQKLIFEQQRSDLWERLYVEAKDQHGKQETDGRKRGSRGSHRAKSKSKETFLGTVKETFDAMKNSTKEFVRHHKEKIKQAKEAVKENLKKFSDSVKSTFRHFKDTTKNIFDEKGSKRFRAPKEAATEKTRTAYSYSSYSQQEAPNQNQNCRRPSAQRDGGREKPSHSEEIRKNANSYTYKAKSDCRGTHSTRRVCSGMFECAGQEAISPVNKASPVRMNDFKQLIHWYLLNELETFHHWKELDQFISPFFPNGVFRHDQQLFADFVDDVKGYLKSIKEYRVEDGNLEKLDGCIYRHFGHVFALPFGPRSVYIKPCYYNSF

[32] = target: Nuclear speckle splicing regulatory protein 1 (Mus musculus) (UniProt Q5NCR9)
[33] = target: Protein phosphatase 1 regulatory subunit 3A (Mus musculus) (UniProt Q99MR9)
Protein phosphatase 1 regulatory subunit 3A (Mus musculus), sequence (Q99MR9 whole entry): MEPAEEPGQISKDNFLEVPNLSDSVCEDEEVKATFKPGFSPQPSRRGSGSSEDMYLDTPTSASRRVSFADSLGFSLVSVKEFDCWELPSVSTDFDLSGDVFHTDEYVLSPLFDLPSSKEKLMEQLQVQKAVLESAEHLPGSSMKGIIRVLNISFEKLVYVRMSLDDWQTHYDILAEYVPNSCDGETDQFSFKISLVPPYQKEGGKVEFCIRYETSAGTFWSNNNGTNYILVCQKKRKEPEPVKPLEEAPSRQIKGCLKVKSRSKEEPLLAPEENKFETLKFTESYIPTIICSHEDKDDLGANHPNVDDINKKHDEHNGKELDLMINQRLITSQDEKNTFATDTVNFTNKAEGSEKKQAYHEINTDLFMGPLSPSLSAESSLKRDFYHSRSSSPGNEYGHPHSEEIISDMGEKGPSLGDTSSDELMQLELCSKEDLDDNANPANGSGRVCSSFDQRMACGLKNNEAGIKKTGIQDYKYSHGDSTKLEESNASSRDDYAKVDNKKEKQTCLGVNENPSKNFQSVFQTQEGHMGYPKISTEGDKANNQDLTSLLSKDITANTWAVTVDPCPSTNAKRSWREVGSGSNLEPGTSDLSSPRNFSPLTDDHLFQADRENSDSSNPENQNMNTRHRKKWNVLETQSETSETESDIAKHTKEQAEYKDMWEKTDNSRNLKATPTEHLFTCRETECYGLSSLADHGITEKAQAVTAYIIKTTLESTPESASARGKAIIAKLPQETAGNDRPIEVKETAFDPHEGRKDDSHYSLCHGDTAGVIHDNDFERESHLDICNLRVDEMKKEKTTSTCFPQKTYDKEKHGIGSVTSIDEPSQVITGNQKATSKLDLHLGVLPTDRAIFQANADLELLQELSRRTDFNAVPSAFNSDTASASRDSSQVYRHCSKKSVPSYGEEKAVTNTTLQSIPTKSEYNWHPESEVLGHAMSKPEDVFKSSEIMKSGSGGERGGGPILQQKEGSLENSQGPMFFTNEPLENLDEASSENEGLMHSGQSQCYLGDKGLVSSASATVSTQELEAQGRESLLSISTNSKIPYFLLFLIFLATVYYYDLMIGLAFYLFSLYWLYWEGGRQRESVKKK

[34] = target: Eukaryotic translation initiation factor 3 subunit H (Mus musculus) (UniProt Q91WK2)
[35] = target: NADH dehydrogenase [ubiquinone] flavoprotein 1, mitochondrial (Mus musculus) (UniProt Q91YT0)
NADH dehydrogenase [ubiquinone] flavoprotein 1, mitochondrial (Mus musculus), sequence (Q91YT0 21-464 limits assumed): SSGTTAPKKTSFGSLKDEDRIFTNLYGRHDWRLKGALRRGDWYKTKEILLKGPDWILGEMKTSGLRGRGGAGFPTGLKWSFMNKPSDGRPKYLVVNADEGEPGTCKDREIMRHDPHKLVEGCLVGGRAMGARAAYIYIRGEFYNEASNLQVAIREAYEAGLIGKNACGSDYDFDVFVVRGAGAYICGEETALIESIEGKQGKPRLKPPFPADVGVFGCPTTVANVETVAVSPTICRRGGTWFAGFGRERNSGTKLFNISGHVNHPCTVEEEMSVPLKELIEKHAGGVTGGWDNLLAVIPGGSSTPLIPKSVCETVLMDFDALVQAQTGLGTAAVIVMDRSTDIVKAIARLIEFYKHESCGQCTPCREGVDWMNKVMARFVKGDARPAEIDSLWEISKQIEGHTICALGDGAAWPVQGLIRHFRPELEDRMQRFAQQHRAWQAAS

[36] = target: RNA methyltransferase 10 homolog C (Mus musculus) (UniProt Q3UFY8)
[37] = target: E3 ubiquitin-protein ligase UBR4 (Mus musculus) (UniProt A2AN08)
[38] = target: Barrier-to-autointegration factor (Mus musculus) (UniProt O54962)
Barrier-to-autointegration factor (Mus musculus), sequence (O54962 whole entry): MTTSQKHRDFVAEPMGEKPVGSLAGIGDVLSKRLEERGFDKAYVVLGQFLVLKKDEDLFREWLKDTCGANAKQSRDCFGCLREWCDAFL

[39] = target: Extended synaptotagmin-2 (Mus musculus) (UniProt Q3TZZ7)
Extended synaptotagmin-2 (Mus musculus), sequence (Q3TZZ7 whole entry): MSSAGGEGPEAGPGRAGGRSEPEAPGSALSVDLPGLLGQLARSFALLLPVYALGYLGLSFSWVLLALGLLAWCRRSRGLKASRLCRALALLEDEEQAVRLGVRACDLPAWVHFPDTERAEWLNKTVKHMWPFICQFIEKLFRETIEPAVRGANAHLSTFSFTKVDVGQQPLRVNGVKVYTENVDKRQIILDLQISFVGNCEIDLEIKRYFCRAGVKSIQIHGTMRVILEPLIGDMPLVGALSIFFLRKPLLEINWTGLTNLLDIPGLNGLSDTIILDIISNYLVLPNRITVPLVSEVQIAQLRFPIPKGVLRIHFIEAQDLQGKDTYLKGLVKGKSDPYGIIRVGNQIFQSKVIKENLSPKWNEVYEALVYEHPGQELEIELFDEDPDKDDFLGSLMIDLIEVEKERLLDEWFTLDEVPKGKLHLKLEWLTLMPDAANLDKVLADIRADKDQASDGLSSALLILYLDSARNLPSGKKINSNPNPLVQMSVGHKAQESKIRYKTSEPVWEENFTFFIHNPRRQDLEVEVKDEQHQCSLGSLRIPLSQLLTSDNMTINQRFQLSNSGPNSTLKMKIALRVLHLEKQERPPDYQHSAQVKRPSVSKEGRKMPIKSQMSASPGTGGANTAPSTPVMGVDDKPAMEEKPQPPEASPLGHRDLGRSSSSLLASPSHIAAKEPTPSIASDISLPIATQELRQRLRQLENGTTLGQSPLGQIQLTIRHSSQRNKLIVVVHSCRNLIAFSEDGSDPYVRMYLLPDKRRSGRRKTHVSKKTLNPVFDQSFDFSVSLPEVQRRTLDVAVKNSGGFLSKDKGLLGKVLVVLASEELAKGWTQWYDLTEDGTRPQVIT

NADH dehydrogenase [ubiquinone] iron-sulfur protein 6, mitochondrial (Mus musculus), sequence (P52503 21-116 limits assumed): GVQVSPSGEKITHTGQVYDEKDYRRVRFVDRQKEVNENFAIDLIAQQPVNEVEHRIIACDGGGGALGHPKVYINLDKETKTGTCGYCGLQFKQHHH

With “human BVES fused with 3xHA tag (from UniProt Q8NE79 1-360)” the AAV9-BVES-HA (IP-MS count) [1] was 2, the AAV9-BVES-HA (IP-MS count) [2] was 2 and the AAV9-BVES-HA (IP-MS count) [3] was 2. It also gave an AAV9-BVES-HA (IP-MS count) [4] of 3, an AAV9-BVES-HA (IP-MS count) [5] of 2 and an AAV9-BVES-HA (IP-MS count) [6] of 3. The AAV9-BVES-HA (IP-MS count) [7] was 2, the AAV9-BVES-HA (IP-MS count) [8] was 27 and the AAV9-BVES-HA (IP-MS count) [9] was 3. The AAV9-BVES-HA (IP-MS count) [10] was 4, the AAV9-BVES-HA (IP-MS count) [11] was 6 and the AAV9-BVES-HA (IP-MS count) [12] was 3. The AAV9-BVES-HA (IP-MS count) [13] was 2, the AAV9-BVES-HA (IP-MS count) [14] was 2 and the AAV9-BVES-HA (IP-MS count) [15] was 2. The AAV9-BVES-HA (IP-MS count) [16] was 12, the AAV9-BVES-HA (IP-MS count) [17] was 17 and the AAV9-BVES-HA (IP-MS count) [18] was 2. The AAV9-BVES-HA (IP-MS count) [19] was 13, the AAV9-BVES-HA (IP-MS count) [20] was 5 and the AAV9-BVES-HA (IP-MS count) [21] was 3. It also gave an AAV9-BVES-HA (IP-MS count) [22] of 3, an AAV9-BVES-HA (IP-MS count) [23] of 5 and an AAV9-BVES-HA (IP-MS count) [24] of 2. It also gave an AAV9-BVES-HA (IP-MS count) [25] of 3, an AAV9-BVES-HA (IP-MS count) [26] of 2 and an AAV9-BVES-HA (IP-MS count) [27] of 2. It also gave an AAV9-BVES-HA (IP-MS count) [28] of 4, an AAV9-BVES-HA (IP-MS count) [29] of 2 and an AAV9-BVES-HA (IP-MS count) [30] of 5. The AAV9-BVES-HA (IP-MS count) [31] was 2, the AAV9-BVES-HA (IP-MS count) [32] was 2 and the AAV9-BVES-HA (IP-MS count) [33] was 12. The AAV9-BVES-HA (IP-MS count) [34] was 2, the AAV9-BVES-HA (IP-MS count) [35] was 3 and the AAV9-BVES-HA (IP-MS count) [36] was 2. For the same substance, the AAV9-BVES-HA (IP-MS count) [37] was 4, the AAV9-BVES-HA (IP-MS count) [38] was 3 and the AAV9-BVES-HA (IP-MS count) [39] was 2.
